T1: mouse IL-5Rα on Y16 cells (mouse, UniProt P21183 18-415)
T1 construct: whole, on cells; also called IL-5Rα chain; mouse IL-5Rα-expressing cell Y16
T1 sequence (looked up): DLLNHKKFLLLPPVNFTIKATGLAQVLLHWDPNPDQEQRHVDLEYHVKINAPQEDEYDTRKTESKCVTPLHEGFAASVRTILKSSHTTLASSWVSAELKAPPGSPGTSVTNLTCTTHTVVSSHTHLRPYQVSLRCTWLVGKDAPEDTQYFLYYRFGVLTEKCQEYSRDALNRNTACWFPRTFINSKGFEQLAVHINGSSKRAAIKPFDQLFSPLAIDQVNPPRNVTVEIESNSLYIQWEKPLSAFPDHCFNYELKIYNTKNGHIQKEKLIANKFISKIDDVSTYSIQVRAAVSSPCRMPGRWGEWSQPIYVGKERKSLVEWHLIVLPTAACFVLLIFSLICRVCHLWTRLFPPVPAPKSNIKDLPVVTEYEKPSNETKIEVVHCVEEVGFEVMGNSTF


Target: T1, mouse IL-5Rα on Y16 cells
Assay: flow cytometry on Y16 cells expressing mouse IL-5R, detection with goat F(ab')2 anti-human IgG PE, Geomean
Method: The chimeric antibodies prepared in Example 8 were evaluated for their antigen binding activity using a mouse-derived cell line Y16 expressing IL-5R. The Y16 cells were washed with SM (staining medium containing 2% FCS, 0.05% NaN₃, and 1 mM EDTA in PBS). Then, Mouse BD Fc Block (manufactured by Becton, Dickinson and Company) was added thereto at a concentration of 5 μg/mL, and the mixture was left standing at 4° C. for 30 min. The cells were inoculated at a cell number of 1×10⁵ cells/well to a 96-well U-bottom plate, and each chimeric antibody adjusted to a final concentration of 10000, 2500, 625, 156, 39, 10, 2.4, or 0.6 ng/mL was added thereto, followed by reaction at 4° C. for 60 min. The rat/human chimeric control antibodies used were rtDNP-1 hIgG1 (DF) antibody (KM8808) and rtDNP-1 hIgG1 (N297A) antibody (KM6161). The nucleotide sequences and amino acid sequences of the variable regions of each isotype control antibody are shown in SEQ ID NOs: 29 to 34. After washing of the cells with SM, Goat F(ab′)₂ Anti-Human IgG PE (γ chain specific) (manufactured by Southern Biotech) diluted 500-fold with SM was added thereto, followed by reaction at 4° C. for 60 min. After washing of the cells with SM, the cells were resuspended in 50 μL of SM. Fluorescence intensity was measured by FCM (flow cytometer FACS Canto II (manufactured by Becton, Dickinson and Company)). The data was analyzed using FlowJo 7.65 (manufactured by Tomy Digital Biology Co., Ltd.) to calculate a Geomean value at each concentration.

binding result	EC50 (read off the curve) [µg/mL]	Binder
no binding (tested: 10 µg/mL)		rtDNP-1 hIgG1 (DF) antibody (KM8808) (antibody, V domains shown, Isotype control; Rat anti-DNP variable regions on a human IgG1 constant region, no core fucose; also called core fucose-deficient anti-dinitrophenol (DNP) rat/human chimeric antibody) VH: EVQLQESGPGLVKPSQSLSLTCSVTGYSITSGYWNWIRKFPGNKMEWIGYISYSGSTYYNPSLKSRISITRDTSKNQFFLQLNSVTTEDTATYYCARWGVRHYFDYWGQGVMATVSS VL: DVVMTQTPVSLPVSLGGQASISCRSSQSLANSYGNTYLSWYLQKPGQSPQLLIYRVSNTFSGVPDRFSGSGSGTDFTLKISRVEPEDLGDYYCLQGTHQPYTFGAGTKLELK
no binding (tested: 10 µg/mL)		rtDNP-1 hIgG1 (N297A) antibody (KM6161) (antibody, V domains shown, Isotype control; Rat anti-DNP variable regions on a human IgG1 constant region with N297A; also called N-linked sugar chain-deficient anti-DNP rat/human chimeric antibody) VH: EVQLQESGPGLVKPSQSLSLTCSVTGYSITSGYWNWIRKFPGNKMEWIGYISYSGSTYYNPSLKSRISITRDTSKNQFFLQLNSVTTEDTATYYCARWGVRHYFDYWGQGVMATVSS VL: DVVMTQTPVSLPVSLGGQASISCRSSQSLANSYGNTYLSWYLQKPGQSPQLLIYRVSNTFSGVPDRFSGSGSGTDFTLKISRVEPEDLGDYYCLQGTHQPYTFGAGTKLELK
	~0.06	H7 hIgG1 (DF) (H7-1) (antibody, V domains shown, also called core fucose-deficient H7 chimeric antibody; Potelligent-type H7 chimeric antibody) VH: EVQLQQSGAELGKPGTSVKLSCKVSGYNIKNTYIHWVNQRPGKGLEWIGRIDPANGNPIYAEKFKNKATLTADTSSNTAYMQLSQLKSDDTAIYFCAMHRGHSMGPGPYVMDAWGQGASVTVSS VL: DIQMTQSPASLSASLGETVTIECRTSEDIYNGLAWYQQKPGKSPQLLIYNANSLHTGVPSRFSGSGSGTQYSLKINSLQSEDVASYCCQQYSNYPFTFGSGTKLEIK
	~0.06	H7 hIgG1 (N297A) (H7-3) (antibody, V domains shown, Rat H7 variable regions on a human IgG1 constant region with N297A (EU index), so it lacks the N-linked sugar chain; Human kappa light chain constant region; also called N-linked sugar chain-deficient H7 chimeric antibody) VH: EVQLQQSGAELGKPGTSVKLSCKVSGYNIKNTYIHWVNQRPGKGLEWIGRIDPANGNPIYAEKFKNKATLTADTSSNTAYMQLSQLKSDDTAIYFCAMHRGHSMGPGPYVMDAWGQGASVTVSS VL: DIQMTQSPASLSASLGETVTIECRTSEDIYNGLAWYQQKPGKSPQLLIYNANSLHTGVPSRFSGSGSGTQYSLKINSLQSEDVASYCCQQYSNYPFTFGSGTKLEIK
	~0.04	H7 (CS) hIgG1 (DF) (H7-2) (antibody, V domains shown, Human IgG1 and human kappa constant regions, no core fucose (FUT8-/- CHO); also called Cys substitution variant H7-2; H7 (CS) altered form) VH: EVQLQQSGAELGKPGTSVKLSCKVSGYNIKNTYIHWVNQRPGKGLEWIGRIDPANGNPIYAEKFKNKATLTADTSSNTAYMQLSQLKSDDTAIYFCAMHRGHSMGPGPYVMDAWGQGASVTVSS VL: DIQMTQSPASLSASLGETVTIECRTSEDIYNGLAWYQQKPGKSPQLLIYNANSLHTGVPSRFSGSGSGTQYSLKINSLQSEDVASYSCQQYSNYPFTFGSGTKLEIK
	~0.04	H7 (CS) hIgG1 (N297A) (H7-4) (antibody, V domains shown, H7 VL with Cys 87 replaced by Ser. Human IgG1 constant region with N297A (EU index) and human kappa constant region; also called H7 (CS) altered form) VH: EVQLQQSGAELGKPGTSVKLSCKVSGYNIKNTYIHWVNQRPGKGLEWIGRIDPANGNPIYAEKFKNKATLTADTSSNTAYMQLSQLKSDDTAIYFCAMHRGHSMGPGPYVMDAWGQGASVTVSS VL: DIQMTQSPASLSASLGETVTIECRTSEDIYNGLAWYQQKPGKSPQLLIYNANSLHTGVPSRFSGSGSGTQYSLKINSLQSEDVASYSCQQYSNYPFTFGSGTKLEIK
